{
  "source": "paper PMC2741639",
  "about": "(Microbiological research, 2008)",
  "proteins": {"B1": {"name": "His-tagged Sbm (enzyme, E. coli, UniProt P27253 1-714, looked up)", "chain": "MSNVQEWQQLANKELSRREKTVDSLVHQTAEGIAIKPLYTEADLDNLEVTGTLPGLPPYVRGPRATMYTAQPWTIRQYAGFSTAKESNAFYRRNLAAGQKGLSVAFDLATHRGYDSDNPRVAGDVGKAGVAIDTVEDMKVLFDQIPLDKMSVSMTMNGAVLPVLAFYIVAAEEQGVTPDKLTGTIQNDILKEYLCRNTYIYPPKPSMRIIADIIAWCSGNMPRFNTISISGYHMGEAGANCVQQVAFTLADGIEYIKAAISAGLKIDDFAPRLSFFFGIGMDLFMNVAMLRAARYLWSEAVSGFGAQDPKSLALRTHCQTSGWSLTEQDPYNNVIRTTIEALAATLGGTQSLHTNAFDEALGLPTDFSARIARNTQIIIQEESELCRTVDPLAGSYYIESLTDQIVKQARAIIQQIDEAGGMAKAIEAGLPKRMIEEASAREQSLIDQGKRVIVGVNKYKLDHEDETDVLEIDNVMVRNEQIASLERIRATRDDAAVTAALNALTHAAQHNENLLAAAVNAARVRATLGEISDALEVAFDRYLVPSQCVTGVIAQSYHQSEKSASEFDAIVAQTEQFLADNGRRPRILIAKMGQDGHDRGAKVIASAYSDLGFDVDLSPMFSTPEEIARLAVENDVHVVGASSLAAGHKTLIPELVEALKKWGREDICVVAGGVIPPQDYAFLQERGVAAIYGPGTPMLDSVRDVLNLISQHHD"}},
  "target": "the molecule itself",
  "test": "native gel or EMSA",
  "data": [
    {"protein": "B1", "values": [
      {"measurement": "stoichiometry N", "result": 2}
    ]}
  ]
}
